Results taken from publication PMC10491584, “Structural convergence endows nuclear transport receptor Kap114p with a transcriptional repressor function toward TATA-binding protein” (Nature Communications, 2023).
Where “and” joins values, the source holds several entries; their conditions need not be identical. Equal values may be shown once.

What was measured:
Kap114pΔ(932-941) = molecular target: T1, Kap114pΔ(932-941) (S. cerevisiae, UniProt P53067 1-1004, Δ(932-941)); assay: ITC; Kap114p (wild type or mutant) 50 uM in the sample cell, partner 500 uM in the syringe; 25 °C; 20 mM HEPES pH 7.4, 150 mM NaCl; triplicate; conditions: both partners purified
T1 construct: Kap114p, S. cerevisiae, full length with residues 932-941 deleted; also called Kap114p(D932-941); Kap114p deletion mutant lacking the HEAT19 loop (a.a. 932-941); source: E. coli (Rosetta strain), purified (GST resin, MonoQ, Superdex 200)
T1 sequence (looked up): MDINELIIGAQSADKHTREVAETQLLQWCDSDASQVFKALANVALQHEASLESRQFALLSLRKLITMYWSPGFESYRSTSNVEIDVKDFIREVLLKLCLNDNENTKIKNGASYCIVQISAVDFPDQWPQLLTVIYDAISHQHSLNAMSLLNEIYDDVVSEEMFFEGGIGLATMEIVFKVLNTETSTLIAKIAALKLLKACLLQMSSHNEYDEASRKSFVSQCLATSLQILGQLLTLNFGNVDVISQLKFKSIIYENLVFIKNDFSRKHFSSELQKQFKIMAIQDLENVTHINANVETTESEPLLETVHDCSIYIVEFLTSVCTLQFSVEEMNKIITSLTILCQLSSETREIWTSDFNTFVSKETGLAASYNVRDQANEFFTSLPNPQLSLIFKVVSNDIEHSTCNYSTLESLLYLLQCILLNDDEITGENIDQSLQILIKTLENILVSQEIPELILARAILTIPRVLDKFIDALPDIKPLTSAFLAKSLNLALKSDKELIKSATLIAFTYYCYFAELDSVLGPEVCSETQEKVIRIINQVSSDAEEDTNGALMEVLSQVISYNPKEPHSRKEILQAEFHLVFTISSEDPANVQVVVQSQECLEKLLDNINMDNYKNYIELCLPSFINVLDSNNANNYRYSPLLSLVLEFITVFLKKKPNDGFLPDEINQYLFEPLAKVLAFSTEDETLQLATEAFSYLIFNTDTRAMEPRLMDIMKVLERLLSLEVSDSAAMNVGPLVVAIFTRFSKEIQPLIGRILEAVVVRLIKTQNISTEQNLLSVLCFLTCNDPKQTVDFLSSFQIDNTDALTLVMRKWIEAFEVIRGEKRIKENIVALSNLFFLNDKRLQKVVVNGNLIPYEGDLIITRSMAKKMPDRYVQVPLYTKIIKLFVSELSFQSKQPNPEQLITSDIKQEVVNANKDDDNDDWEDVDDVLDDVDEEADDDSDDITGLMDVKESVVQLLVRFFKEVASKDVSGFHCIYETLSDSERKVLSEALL

Kap114pΔ(848-875) = molecular target: T2, Kap114pΔ(848-875) (S. cerevisiae, UniProt P53067 1-1004, Δ(848-875)); assay: as above; conditions: both partners purified
T2 construct: also called Kap114p(D848-875); source: E. coli (Rosetta strain), purified (GST resin, MonoQ, Superdex 200)
T2 sequence (looked up): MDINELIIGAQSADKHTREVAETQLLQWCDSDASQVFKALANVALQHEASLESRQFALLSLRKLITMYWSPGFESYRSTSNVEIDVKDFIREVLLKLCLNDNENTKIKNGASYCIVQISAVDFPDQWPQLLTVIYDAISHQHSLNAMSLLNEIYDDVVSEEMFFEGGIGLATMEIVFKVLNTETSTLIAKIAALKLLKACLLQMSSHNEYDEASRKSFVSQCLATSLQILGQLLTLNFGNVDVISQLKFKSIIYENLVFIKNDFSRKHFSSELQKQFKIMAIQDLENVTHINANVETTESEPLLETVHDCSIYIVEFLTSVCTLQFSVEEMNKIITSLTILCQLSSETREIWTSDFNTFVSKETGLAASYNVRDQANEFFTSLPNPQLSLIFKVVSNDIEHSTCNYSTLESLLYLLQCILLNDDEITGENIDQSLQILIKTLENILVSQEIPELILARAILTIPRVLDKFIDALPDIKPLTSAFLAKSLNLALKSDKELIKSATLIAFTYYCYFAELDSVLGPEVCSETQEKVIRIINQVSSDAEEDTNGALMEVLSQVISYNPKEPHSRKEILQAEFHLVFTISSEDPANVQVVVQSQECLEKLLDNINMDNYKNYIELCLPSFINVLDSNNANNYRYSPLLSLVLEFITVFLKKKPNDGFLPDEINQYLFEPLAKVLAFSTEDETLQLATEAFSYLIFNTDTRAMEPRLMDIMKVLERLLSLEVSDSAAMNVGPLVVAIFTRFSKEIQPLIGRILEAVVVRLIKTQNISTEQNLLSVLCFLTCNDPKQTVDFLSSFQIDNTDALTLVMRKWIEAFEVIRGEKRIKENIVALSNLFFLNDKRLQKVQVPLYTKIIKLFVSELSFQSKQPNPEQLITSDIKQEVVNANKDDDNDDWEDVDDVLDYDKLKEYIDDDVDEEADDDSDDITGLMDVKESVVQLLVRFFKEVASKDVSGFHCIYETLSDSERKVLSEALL

B1: core domain of yTBP (a.a. 61-240) (domain or fragment, S. cerevisiae, UniProt P13393 61-240, looked up)
chain: SGIVPTLQNIVATVTLGCRLDLKTVALHARNAEYNPKRFAAVIMRIREPKTTALIFASGKMVVTGAKSEDDSKLASRKYARIIQKIGFAAKFTDFKIQNIVGSCDVKFPIRLEGLAFSHGTFSSYEPELFPGLIYRMVKPKIVLLIFVSGKIVLTGAKQREEIYQAFEAIYPVLSEFRKM
notes: 61-240; also called yTBP^C; yTBPc; source: E. coli (Rosetta strain), purified (Ni-NTA, HiTrap SP, Superdex 75); not shown: 6xHis, N-terminal, cleaved
B1 was tested, and the Ka (Kap114pΔ(932-941)) was 5.09e+06 M⁻¹ and 8.69e+06 M⁻¹ and 6.15e+06 M⁻¹, the Ka (Kap114pΔ(848-875)) was 4.16e+08 M⁻¹ and 7.85e+08 M⁻¹ and 6.96e+08 M⁻¹ and the Kd (Kap114pΔ(848-875)) was 1.7 nM.
